Test results taken from patent publication US20200199241A1 (Chugai, published 2020).
Substitutions are numbered along the chain they refer to. Names and notes keep the numbering of the source.

T1: human FcγRIIa(R) (human, UniProt P12318 36-217)
T1 construct: also called FcgRIIaR; FcγRIIa type R
T1 chain: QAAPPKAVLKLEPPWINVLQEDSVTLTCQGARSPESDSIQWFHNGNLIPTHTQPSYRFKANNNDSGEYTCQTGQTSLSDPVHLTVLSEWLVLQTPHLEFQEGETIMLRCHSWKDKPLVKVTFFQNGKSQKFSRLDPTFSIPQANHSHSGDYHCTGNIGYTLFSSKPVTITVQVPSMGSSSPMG

T2: human FcγRIIa(H) (human, UniProt P12318 36-217)
T2 construct: also called FcgRIIaH; FcγRIIa type H
T2 sequence: T1 chain with R133H

T3: human FcγRIIb (human, UniProt P31994 43-217, limits assumed)
T3 construct: also called FcgRIIb
T3 sequence: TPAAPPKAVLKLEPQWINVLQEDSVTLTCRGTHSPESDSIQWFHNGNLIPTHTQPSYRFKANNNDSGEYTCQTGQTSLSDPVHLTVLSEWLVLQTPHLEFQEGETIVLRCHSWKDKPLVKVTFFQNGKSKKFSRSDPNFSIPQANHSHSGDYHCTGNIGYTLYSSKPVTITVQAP

B1: GpH7-B3 variant P238R/GpL16-k0 (antibody, human IgG1)
heavy: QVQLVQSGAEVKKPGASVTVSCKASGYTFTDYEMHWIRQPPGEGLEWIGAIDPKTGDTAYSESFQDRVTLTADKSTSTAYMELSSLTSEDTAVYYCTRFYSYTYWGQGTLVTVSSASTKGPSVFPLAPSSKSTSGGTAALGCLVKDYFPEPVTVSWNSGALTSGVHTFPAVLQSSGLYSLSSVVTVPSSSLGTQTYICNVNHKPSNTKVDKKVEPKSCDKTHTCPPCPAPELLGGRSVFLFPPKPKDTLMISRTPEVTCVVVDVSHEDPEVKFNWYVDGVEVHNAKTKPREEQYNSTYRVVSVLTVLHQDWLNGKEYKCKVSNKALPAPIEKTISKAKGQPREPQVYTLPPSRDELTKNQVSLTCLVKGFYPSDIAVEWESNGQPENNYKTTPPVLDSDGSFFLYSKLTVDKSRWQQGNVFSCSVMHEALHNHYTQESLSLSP
light: DIVMTQSPLSLPVTPGEPASISCQASESLVHSNRNTYLHWYLQKPGQSPQLLIYKVSNRFSGVPDRFSGSGSGTDFTLKISRVEAEDVGVYYCSQNTHVPPTFGQGTKVEIE
notes: copies: 2 + 2
B2: GpH7-B3 variant S239F/GpL16-k0 (antibody, human IgG1)
heavy: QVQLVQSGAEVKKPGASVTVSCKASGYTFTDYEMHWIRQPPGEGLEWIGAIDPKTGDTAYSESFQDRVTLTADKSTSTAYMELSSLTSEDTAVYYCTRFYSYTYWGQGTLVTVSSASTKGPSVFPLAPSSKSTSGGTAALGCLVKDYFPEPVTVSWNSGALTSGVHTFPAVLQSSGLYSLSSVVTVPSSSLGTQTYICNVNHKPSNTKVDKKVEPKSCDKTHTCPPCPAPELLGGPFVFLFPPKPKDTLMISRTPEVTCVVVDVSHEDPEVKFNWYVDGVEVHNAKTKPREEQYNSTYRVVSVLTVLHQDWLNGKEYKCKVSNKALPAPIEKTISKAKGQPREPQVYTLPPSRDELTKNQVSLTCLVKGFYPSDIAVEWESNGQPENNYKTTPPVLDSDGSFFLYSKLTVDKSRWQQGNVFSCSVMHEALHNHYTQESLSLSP
light: B1 light
notes: copies: 2 + 2
B3: GpH7-B3 variant P238T/GpL16-k0 (antibody, human IgG1)
heavy: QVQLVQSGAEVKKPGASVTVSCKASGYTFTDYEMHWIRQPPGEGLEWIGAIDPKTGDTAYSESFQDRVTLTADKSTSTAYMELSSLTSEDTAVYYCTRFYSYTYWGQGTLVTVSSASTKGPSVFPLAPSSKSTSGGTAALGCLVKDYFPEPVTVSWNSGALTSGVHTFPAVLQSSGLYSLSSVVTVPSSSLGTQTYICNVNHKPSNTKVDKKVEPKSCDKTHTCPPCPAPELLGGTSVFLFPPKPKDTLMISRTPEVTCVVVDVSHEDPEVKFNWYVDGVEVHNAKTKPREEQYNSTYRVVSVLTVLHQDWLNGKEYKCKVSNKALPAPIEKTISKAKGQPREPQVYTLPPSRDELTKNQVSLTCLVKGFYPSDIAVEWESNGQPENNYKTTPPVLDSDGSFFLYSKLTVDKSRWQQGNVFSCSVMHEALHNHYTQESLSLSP
light: B1 light
notes: copies: 2 + 2
B4: GpH7-B3 variant S267Y/GpL16-k0 (antibody, human IgG1)
heavy: not shown
light: B1 light
notes: copies: 2 + 2
B5: GpH7-B3 variant S239Y/GpL16-k0 (antibody, human IgG1)
heavy: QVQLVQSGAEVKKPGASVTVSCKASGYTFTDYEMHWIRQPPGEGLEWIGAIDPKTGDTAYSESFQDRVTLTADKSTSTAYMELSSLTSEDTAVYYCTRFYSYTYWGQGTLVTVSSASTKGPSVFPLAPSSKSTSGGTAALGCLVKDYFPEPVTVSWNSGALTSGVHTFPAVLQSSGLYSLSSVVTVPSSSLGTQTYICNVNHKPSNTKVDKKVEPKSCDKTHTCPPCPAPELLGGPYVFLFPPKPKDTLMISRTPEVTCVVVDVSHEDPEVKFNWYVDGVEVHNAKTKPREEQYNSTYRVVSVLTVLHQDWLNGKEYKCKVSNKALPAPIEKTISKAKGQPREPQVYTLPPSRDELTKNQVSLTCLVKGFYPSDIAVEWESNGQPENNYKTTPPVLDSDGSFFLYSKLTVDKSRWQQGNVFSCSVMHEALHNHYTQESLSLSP
light: B1 light
notes: copies: 2 + 2
B6: GpH7-B3 variant S239Q/GpL16-k0 (antibody, human IgG1)
heavy: not shown
light: B1 light
notes: copies: 2 + 2
B7: GpH7-B3 variant S267W/GpL16-k0 (antibody, human IgG1)
heavy: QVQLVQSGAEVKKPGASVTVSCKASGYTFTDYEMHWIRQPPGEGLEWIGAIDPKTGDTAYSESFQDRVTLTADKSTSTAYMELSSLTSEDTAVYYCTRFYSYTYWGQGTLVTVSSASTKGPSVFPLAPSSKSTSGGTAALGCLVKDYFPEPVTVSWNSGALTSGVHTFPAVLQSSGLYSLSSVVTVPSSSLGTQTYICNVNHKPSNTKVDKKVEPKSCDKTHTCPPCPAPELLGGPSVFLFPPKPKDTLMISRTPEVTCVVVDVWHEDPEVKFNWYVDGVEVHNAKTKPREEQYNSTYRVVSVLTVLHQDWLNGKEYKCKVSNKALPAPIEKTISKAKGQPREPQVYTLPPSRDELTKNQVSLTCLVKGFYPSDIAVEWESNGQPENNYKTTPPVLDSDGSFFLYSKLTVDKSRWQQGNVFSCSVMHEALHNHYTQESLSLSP
light: B1 light
notes: copies: 2 + 2
B8: GpH7-B3 variant S267P/GpL16-k0 (antibody, human IgG1)
heavy: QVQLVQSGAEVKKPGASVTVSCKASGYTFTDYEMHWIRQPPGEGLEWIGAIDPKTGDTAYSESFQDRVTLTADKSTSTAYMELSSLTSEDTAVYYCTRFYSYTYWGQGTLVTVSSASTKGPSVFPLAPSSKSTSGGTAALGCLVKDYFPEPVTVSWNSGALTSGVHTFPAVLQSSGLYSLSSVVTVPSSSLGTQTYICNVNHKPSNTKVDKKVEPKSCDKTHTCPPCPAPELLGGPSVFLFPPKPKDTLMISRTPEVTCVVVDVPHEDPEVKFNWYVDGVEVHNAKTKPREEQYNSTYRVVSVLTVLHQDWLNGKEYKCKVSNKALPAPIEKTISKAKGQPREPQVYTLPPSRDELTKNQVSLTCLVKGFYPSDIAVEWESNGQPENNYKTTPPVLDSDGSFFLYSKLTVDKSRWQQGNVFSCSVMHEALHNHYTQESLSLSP
light: B1 light
notes: copies: 2 + 2
B9: GpH7-B3 variant P238S/GpL16-k0 (antibody, human IgG1)
heavy: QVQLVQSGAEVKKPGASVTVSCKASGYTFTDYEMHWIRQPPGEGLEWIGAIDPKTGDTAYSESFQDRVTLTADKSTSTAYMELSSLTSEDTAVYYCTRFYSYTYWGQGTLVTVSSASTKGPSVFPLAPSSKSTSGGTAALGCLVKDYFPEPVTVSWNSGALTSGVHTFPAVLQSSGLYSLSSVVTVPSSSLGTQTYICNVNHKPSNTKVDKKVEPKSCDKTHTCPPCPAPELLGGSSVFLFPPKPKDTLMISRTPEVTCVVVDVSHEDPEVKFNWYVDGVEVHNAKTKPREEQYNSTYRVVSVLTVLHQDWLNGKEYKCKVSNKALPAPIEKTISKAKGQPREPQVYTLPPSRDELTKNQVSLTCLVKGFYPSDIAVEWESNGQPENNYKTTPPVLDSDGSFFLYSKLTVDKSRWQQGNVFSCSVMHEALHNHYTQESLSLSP
light: B1 light
notes: copies: 2 + 2
B10: GpH7-B3 variant V266A/GpL16-k0 (antibody, human IgG1)
heavy: not shown
light: B1 light
notes: copies: 2 + 2
B11: GpH7-B3 variant V266G/GpL16-k0 (antibody, human IgG1)
heavy: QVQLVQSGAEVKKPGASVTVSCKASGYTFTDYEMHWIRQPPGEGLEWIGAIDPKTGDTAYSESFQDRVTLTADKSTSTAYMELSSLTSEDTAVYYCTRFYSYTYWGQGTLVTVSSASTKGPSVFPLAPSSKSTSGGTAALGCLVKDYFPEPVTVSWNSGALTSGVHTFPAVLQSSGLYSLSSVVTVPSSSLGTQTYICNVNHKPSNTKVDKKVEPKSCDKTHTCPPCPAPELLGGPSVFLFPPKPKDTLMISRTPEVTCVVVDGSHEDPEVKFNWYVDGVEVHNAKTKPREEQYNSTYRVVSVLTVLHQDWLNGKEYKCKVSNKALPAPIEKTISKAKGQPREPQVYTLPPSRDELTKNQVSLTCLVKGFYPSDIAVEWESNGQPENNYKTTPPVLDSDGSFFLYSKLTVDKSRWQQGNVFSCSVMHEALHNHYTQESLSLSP
light: B1 light
notes: copies: 2 + 2
B12: GpH7-B3 variant S267H/GpL16-k0 (antibody, human IgG1)
heavy: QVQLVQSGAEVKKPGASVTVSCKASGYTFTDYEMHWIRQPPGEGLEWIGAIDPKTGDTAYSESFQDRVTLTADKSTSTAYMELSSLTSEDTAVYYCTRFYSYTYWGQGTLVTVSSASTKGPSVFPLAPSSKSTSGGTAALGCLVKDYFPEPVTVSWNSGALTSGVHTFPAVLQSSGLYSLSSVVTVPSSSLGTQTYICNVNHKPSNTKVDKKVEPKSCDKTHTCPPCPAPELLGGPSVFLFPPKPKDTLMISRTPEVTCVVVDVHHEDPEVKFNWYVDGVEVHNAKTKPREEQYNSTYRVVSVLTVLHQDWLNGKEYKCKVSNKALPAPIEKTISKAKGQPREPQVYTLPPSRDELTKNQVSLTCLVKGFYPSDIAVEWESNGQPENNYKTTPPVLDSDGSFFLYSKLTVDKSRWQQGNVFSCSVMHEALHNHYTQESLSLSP
light: B1 light
notes: copies: 2 + 2
B13: GpH7-B3 variant S239P/GpL16-k0 (antibody, human IgG1)
heavy: not shown
light: B1 light
notes: copies: 2 + 2
B14: GpH7-B3 variant V266W/GpL16-k0 (antibody, human IgG1)
heavy: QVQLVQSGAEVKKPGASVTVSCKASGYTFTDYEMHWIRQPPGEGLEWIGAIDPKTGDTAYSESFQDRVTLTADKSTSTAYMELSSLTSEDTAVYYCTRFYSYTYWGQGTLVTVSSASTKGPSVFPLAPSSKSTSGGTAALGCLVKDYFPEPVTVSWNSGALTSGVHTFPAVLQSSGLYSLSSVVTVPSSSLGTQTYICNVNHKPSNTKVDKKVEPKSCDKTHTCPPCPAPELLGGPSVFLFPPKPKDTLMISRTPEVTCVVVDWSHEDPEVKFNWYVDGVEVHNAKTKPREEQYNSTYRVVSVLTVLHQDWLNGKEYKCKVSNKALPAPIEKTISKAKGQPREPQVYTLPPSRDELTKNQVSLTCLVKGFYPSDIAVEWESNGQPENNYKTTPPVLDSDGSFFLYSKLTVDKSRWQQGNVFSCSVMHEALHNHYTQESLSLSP
light: B1 light
notes: copies: 2 + 2

Biological target: T4, human FcγRIa (human, UniProt P12314 16-292, limits assumed)
T4 construct: also called FcgRIa; FcγRI (CD64)
Assay: SPR (Biacore);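 also: antibody variants captured on sensor chip, Fcγ receptor flowed over at 25 °C, bound receptor normalized to amount of captured antibody, expressed relative to reference antibody set as 100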

T4 sequence (P12314 16-292 limits assumed): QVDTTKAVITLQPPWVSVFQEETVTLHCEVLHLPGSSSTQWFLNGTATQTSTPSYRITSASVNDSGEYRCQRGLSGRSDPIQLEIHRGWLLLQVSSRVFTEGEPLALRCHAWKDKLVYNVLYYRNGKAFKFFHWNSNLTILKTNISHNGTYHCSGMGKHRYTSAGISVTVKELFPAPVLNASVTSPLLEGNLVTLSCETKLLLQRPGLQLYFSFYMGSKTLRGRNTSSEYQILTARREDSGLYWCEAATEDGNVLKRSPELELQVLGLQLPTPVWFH

relative binding activity	Binder
1 % of GpH7-B3/GpL16-k0	B1
77 % of GpH7-B3/GpL16-k0	B2
67 % of GpH7-B3/GpL16-k0	B3
96 % of GpH7-B3/GpL16-k0	B4
69 % of GpH7-B3/GpL16-k0	B5
96 % of GpH7-B3/GpL16-k0	B6
97 % of GpH7-B3/GpL16-k0	B7
78 % of GpH7-B3/GpL16-k0	B8
91 % of GpH7-B3/GpL16-k0	B9
95 % of GpH7-B3/GpL16-k0	B10
86 % of GpH7-B3/GpL16-k0	B11
95 % of GpH7-B3/GpL16-k0	B12
89 % of GpH7-B3/GpL16-k0	B13
78 % of GpH7-B3/GpL16-k0	B14

Biological target: T1, human FcγRIIa(R)
Assay: SPR (Biacore);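 also: antibody variants captured on sensor chip, Fcγ receptor flowed over at 25 °C, bound receptor normalized to amount of captured antibody, expressed relative to reference antibody set as 100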

relative binding activity	Binder
-1 % of GpH7-B3/GpL16-k0	B1
20 % of GpH7-B3/GpL16-k0	B2
19 % of GpH7-B3/GpL16-k0	B3
10 % of GpH7-B3/GpL16-k0	B4
11 % of GpH7-B3/GpL16-k0	B5
57 % of GpH7-B3/GpL16-k0	B6
26 % of GpH7-B3/GpL16-k0	B7
0 % of GpH7-B3/GpL16-k0	B8
32 % of GpH7-B3/GpL16-k0	B9
68 % of GpH7-B3/GpL16-k0	B10
27 % of GpH7-B3/GpL16-k0	B11
27 % of GpH7-B3/GpL16-k0	B12
49 % of GpH7-B3/GpL16-k0	B13
37 % of GpH7-B3/GpL16-k0	B14

Biological target: T2, human FcγRIIa(H)
Assay: SPR (Biacore);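 also: antibody variants captured on sensor chip, Fcγ receptor flowed over at 25 °C, bound receptor normalized to amount of captured antibody, expressed relative to reference antibody set as 100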

relative binding activity	Binder
-1 % of GpH7-B3/GpL16-k0	B1
11 % of GpH7-B3/GpL16-k0	B2
6 % of GpH7-B3/GpL16-k0	B3
2 % of GpH7-B3/GpL16-k0	B4
5 % of GpH7-B3/GpL16-k0	B5
58 % of GpH7-B3/GpL16-k0	B6
2 % of GpH7-B3/GpL16-k0	B7
2 % of GpH7-B3/GpL16-k0	B8
13 % of GpH7-B3/GpL16-k0	B9
41 % of GpH7-B3/GpL16-k0	B10
10 % of GpH7-B3/GpL16-k0	B11
3 % of GpH7-B3/GpL16-k0	B12
4 % of GpH7-B3/GpL16-k0	B13
0 % of GpH7-B3/GpL16-k0	B14

Biological target: T3, human FcγRIIb
Assay: SPR (Biacore);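 also: antibody variants captured on sensor chip, Fcγ receptor flowed over at 25 °C, bound receptor normalized to amount of captured antibody, expressed relative to reference antibody set as 100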

relative binding activity	Binder
-2 % of GpH7-B3/GpL16-k0	B1
12 % of GpH7-B3/GpL16-k0	B2
8 % of GpH7-B3/GpL16-k0	B3
14 % of GpH7-B3/GpL16-k0	B4
12 % of GpH7-B3/GpL16-k0	B5
68 % of GpH7-B3/GpL16-k0	B6
29 % of GpH7-B3/GpL16-k0	B7
5 % of GpH7-B3/GpL16-k0	B8
28 % of GpH7-B3/GpL16-k0	B9
55 % of GpH7-B3/GpL16-k0	B10
22 % of GpH7-B3/GpL16-k0	B11
42 % of GpH7-B3/GpL16-k0	B12
61 % of GpH7-B3/GpL16-k0	B13
26 % of GpH7-B3/GpL16-k0	B14

Biological target: T5, human FcγRIIIa(F) (human, UniProt P08637 17-208, limits assumed)
T5 construct: also called FcgRIIIaF; allotype F158
Assay: SPR (Biacore)

T5 sequence (P08637 other isoform, or with tags, fused parts or gaps limits assumed): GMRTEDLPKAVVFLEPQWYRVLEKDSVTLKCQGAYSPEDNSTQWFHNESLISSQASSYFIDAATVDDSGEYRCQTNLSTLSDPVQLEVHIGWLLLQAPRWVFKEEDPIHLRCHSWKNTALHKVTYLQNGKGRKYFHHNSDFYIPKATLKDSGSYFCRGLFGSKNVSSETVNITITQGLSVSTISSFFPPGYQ

relative binding activity	Binder
-1 % of GpH7-B3/GpL16-k0	B1
3 % of GpH7-B3/GpL16-k0	B2
0 % of GpH7-B3/GpL16-k0	B3
1 % of GpH7-B3/GpL16-k0	B4
6 % of GpH7-B3/GpL16-k0	B5
29 % of GpH7-B3/GpL16-k0	B6
2 % of GpH7-B3/GpL16-k0	B7
0 % of GpH7-B3/GpL16-k0	B8
3 % of GpH7-B3/GpL16-k0	B9
26 % of GpH7-B3/GpL16-k0	B10
3 % of GpH7-B3/GpL16-k0	B11
1 % of GpH7-B3/GpL16-k0	B12
-1 % of GpH7-B3/GpL16-k0	B13
-1 % of GpH7-B3/GpL16-k0	B14
